Key:
[1] = biological target: T1, SARS-CoV-2 S1蛋白 (ACRO Biosystems) (SARS-CoV-2, UniProt P0DTC2 16-685); assay: BLI, biotinylated SARS-CoV-2 S1 on SA sensor, antibody as analyte, 1:1 fit
T1 construct: domain: S1; also called SARS-CoV-2S1抗原; 生物素化SARS-CoV-2S1

[2] = biological target: T1, SARS-CoV-2 S1蛋白 (ACRO Biosystems); assay: competition ELISA, S1 coated, competitor HRP-labelled hACE2-Fc
[3] = biological target: 刺突S-鼠Fc融合蛋白 (S-mFc) (SARS-CoV-2; mouse, UniProt P0DTC2 14-1213); assay: flow cytometry, blocking of S-mFc binding to 293T-ACE2 cells

B1: 人源化抗体hS1B-73-3 (antibody, V domains shown)
VH: EVQLVQSGAEVKKPGSSVKVSCKASGYAFTNFLIEWVREAPGQGLEWIGMINPGSGDTNYNEKFKGKATLTADKSTSTVYMELSSLRSEDTAVYFCARQLGLPGFVYWGRGTTVTVSS
VL: DIQMTQSPSSLSASVGDRVTITCKASQDINSYLTWLQQKPGKSPKTLIYRANRLVEGVPSRFSGSGSGQDFTLKISSLQPEDIATYYCLQHDEFPLTFGQGTKLEIKR
notes: also called 抗SARS-CoV-2S1 RBD人源化抗体hS1B-73-3
- Kd [1]: 0.0207 nM
- koff [1]: 2.22e-05 s⁻¹
- kon [1]: 1.07e+06 M⁻¹ s⁻¹
- EC50 [2]: 0.0254 µg/mL
- IC50 [3]: 0.00433 µg/mL
